Residue numbers refer to the chain shown, from its start. Blank lines part the entries; values can stand above or below the binder they belong to.
Legend:
[1] = target: T1, human MICA*008 alpha 3 domain, untagged (crystallography) (human, UniProt Q29983 204-297); assay: complex purified by size exclusion, X-ray structure
T1 construct: Made in T. ni cells with EndoH and kifunensine; N-terminal His6 tag removed with thrombin; also called MICA*008 α3 domain
T1 chain: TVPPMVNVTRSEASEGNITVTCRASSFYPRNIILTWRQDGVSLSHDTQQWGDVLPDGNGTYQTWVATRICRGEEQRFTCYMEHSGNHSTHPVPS

[2] = target: T2, MICA*008 on MEL-JUSO cells (human, UniProt Q29983 24-317); assay: cell-based or functional assay
T2 chain: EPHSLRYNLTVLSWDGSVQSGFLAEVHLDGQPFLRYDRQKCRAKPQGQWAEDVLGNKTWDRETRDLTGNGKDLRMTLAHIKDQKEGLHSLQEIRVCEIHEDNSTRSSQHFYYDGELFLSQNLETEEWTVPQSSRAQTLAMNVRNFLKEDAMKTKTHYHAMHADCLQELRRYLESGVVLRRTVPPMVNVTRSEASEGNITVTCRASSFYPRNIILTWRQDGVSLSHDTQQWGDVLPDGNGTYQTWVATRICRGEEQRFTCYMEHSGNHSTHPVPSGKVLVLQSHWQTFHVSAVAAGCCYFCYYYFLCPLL

[3] = target: MICA*004 on HCC1534 cells (human, UniProt Q29983 24-383); assay: cell-based or functional assay
[4] = target: T3, MICA.008.a3.T204-S297.R279N.mIgG2a.Glyco16 (human; mouse, UniProt Q29983 204-297, engineered N-linked glycosylation site R279N); assay: ELISA, coated variant;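 further: ELISA with plates coated at 2 ug/ml with MICA*008 alpha 3 glycosylation variants as murine IgG2a Fc fusions, antibody binding detected by HRP anti-human IgG Fc and TMB absorbance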
T3 construct: not shown: murine IgG2a Fc
T3 chain: T1 chain with R76N

[5] = target: T4, MICA.008.a3.R202-S297.R202N mIgG2a.Glyco11 (human; mouse, UniProt Q29983 203-297, engineered N-linked glycosylation site R202N); assay: ELISA, coated variant;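 further: ELISA with plates coated at 2 ug/ml with MICA*008 alpha 3 glycosylation variants as murine IgG2a Fc fusions, antibody binding detected by HRP anti-human IgG Fc and TMB absorbance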
T4 construct: not shown: murine IgG2a Fc
T4 chain: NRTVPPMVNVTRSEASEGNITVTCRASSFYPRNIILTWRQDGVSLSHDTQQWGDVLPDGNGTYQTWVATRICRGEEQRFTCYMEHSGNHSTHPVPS

[6] = target: T5, MICA.008.a3.T204-S297.C-terminal insert of N298.G299.S300.mIgG2a.Glyco17 (human; mouse, UniProt Q29983 204-297, engineered N-linked glycosylation site at inserted N298); assay: ELISA, coated variant;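 further: ELISA with plates coated at 2 ug/ml with MICA*008 alpha 3 glycosylation variants as murine IgG2a Fc fusions, antibody binding detected by HRP anti-human IgG Fc and TMB absorbance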
T5 construct: not shown: murine IgG2a Fc
T5 chain: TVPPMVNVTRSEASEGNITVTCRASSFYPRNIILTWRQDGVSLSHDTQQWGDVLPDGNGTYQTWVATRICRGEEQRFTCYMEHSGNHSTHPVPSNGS

[7] = target: T6, MICA.008.a3.T204-S297.I236T.mIgG2a.Glyco13 (human; mouse, UniProt Q29983 204-297, engineered N-linked glycosylation site created by I236T); assay: ELISA, coated variant;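 further: ELISA with plates coated at 2 ug/ml with MICA*008 alpha 3 glycosylation variants as murine IgG2a Fc fusions, antibody binding detected by HRP anti-human IgG Fc and TMB absorbance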
T6 construct: not shown: murine IgG2a Fc
T6 chain: T1 chain with I33T

[8] = target: T7, MICA.008.a3.T204-S297.G243N.mIgG2a.Glyco14 (human; mouse, UniProt Q29983 204-297, engineered N-linked glycosylation site G243N); assay: ELISA, coated variant
T7 construct: not shown: murine IgG2a Fc
T7 chain: T1 chain with G40N

[9] = target: T8, MICA.008.a3.T204-S297.E215N.mIgG2a.Glyco12 (human; mouse, UniProt Q29983 204-297, engineered N-linked glycosylation site E215N); assay: ELISA, coated variant
T8 construct: not shown: murine IgG2a Fc
T8 chain: T1 chain with E12N

[10] = target: T9, MICB005.His (human MICB*005 alpha 3 domain, His tagged) (human); assay: ELISA, coated antigen
T9 construct: also called huMICB*005 alpha 3-his
T9 chain: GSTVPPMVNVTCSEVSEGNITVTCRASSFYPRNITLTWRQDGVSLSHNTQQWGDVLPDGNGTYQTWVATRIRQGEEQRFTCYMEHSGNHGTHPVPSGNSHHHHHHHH

[11] = target: T10, MICA004.His (human MICA*004 alpha 3 domain, His tagged) (human); assay: SPR, antibody captured;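 further: SPR with antibody held by surface-bound anti-Fc while His-tagged alpha three domains flow over, Kd derived by fitting a one-to-one binding model to sensograms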
T10 construct: also called huMICA*004 alpha 3-his
T10 chain: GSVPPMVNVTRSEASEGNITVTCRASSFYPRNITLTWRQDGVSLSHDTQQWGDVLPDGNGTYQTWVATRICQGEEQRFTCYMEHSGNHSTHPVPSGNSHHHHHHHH

[12] = target: T11, MICA002.His (human MICA*002 alpha 3 domain, His tagged) (human); assay: SPR, antibody captured;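 further: SPR with antibody held by surface-bound anti-Fc while His-tagged alpha three domains flow over, Kd derived by fitting a one-to-one binding model to sensograms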
T11 construct: also called huMICA*002 alpha 3-his
T11 chain: T9 chain with C12R, V15A, S28G, R32W, T37S, N48D, R72C, G90S

[13] = target: T12, MICA008.His (human MICA*008 alpha 3 domain, His tagged) (human); assay: SPR, antibody captured;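 further: SPR with antibody held by surface-bound anti-Fc while His-tagged alpha three domains flow over, Kd derived by fitting a one-to-one binding model to sensograms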
T12 construct: Also used for FPOP (expressed in CHO); also called huMICA*008 alpha 3-his; MICA*008 a3
T12 chain: T9 chain with C12R, V15A, T35I, N48D, R72C, Q73R, G90S

[14] = target: T13, MICA*004 on HCC1534 cells (human, UniProt Q29983 24-383); assay: cell-based or functional assay; remark: listed apart in the source
[15] = target: T14, MICA*008 on MEL-JUSO cells (human, UniProt Q29983 24-317); assay: cell-based or functional assay
T14 chain: T2 chain

[16] = target: MICB*005 on HCC1534 cells (human); assay: cell-based or functional assay
MICA*002 on PANC-1 cells = MICA*002 on PANC-1 cells (human, UniProt Q29983 24-383); assay: cell-based or functional assay
[17] = target: T13, MICA*004 on HCC1534 cells; assay: cell-based or functional assay; remark: listed apart in the source
[18] = target: T14, MICA*008 on MEL-JUSO cells; assay: cell-based or functional assay
[19] = target: MICB*005 on HCC1534 cells (human); assay: cell-based or functional assay; remark: listed apart in the source
huMICA*008 alpha 3-his [20] = target: T15, huMICA*008 alpha 3-his (human); assay: 'Affinity (nM)' row of Table 17; method not stated; MICA*008 allele (column of the MEL-JUSO shedding assay)
T15 construct: whole construct entry: GS, alpha 3 domain (Thr204-Ser297), GNS, His8; also the construct of the FPOP experiment; also called MICA008.His; MICA*008 alpha3 construct
T15 chain: T9 chain with C12R, V15A, T35I, N48D, R72C, Q73R, G90S

huMICB*005 alpha 3-his [21] = target: T16, huMICB*005 alpha 3-his (human); assay: 'Affinity (nM)' row of Table 17; method not stated
T16 construct: whole construct entry: GS, alpha 3 domain, GNS, His8; also called MICB005.His; MICB*005 alpha3 construct
T16 chain: T9 chain

huMICA*004 alpha 3-his [22] = target: T17, huMICA*004 alpha 3-his (human); assay: 'Affinity (nM)' row of Table 17; method not stated
T17 construct: whole construct entry: GS, alpha 3 domain, GNS, His8; also called MICA004.His; MICA*004 alpha3 construct
T17 chain: T10 chain

huMICA*002 alpha 3-his [23] = target: T18, huMICA*002 alpha 3-his (human); assay: 'Affinity (nM)' row of Table 17; method not stated
T18 construct: whole construct entry: GS, alpha 3 domain, GNS, His8; also called MICA002.His; MICA*002 alpha3 construct
T18 chain: T9 chain with C12R, V15A, S28G, R32W, T37S, N48D, R72C, G90S

huMICB*005 alpha 3-his [24] = target: T16, huMICB*005 alpha 3-his; assay: SPR, Biacore 8K, antibody on Protein A chip
huMICA*008 alpha 3-his [25] = target: T15, huMICA*008 alpha 3-his; assay: SPR, Biacore 8K, antibody on Protein A chip
huMICA*004 alpha 3-his [26] = target: T17, huMICA*004 alpha 3-his; assay: SPR, Biacore 8K, antibody on Protein A chip
huMICA*002 alpha 3-his [27] = target: T18, huMICA*002 alpha 3-his; assay: SPR, Biacore 8K, antibody on Protein A chip
[28] = target: T19, human MICA*008 C273S alpha 3 domain, untagged (crystallography) (human, UniProt Q29983 204-297); assay: complex purified by size exclusion, X-ray structure
T19 construct: C273S removes the unpaired cysteine; made as the wild-type alpha 3 domain; also called MICA*008 C273S α3 domain
T19 chain: T1 chain with C70S

B2: 6E12.5 (antibody, V domains shown)
VH: EVQLVESGGGLVKPGGSLKLSCAASGFTFSDYYMYWVRQTPEKRLEWVATISDGITYTYYSDSVRGRFTISRDNAENTLYLQMSSLKSEDTAMYYCSKGGGSTARGALDFWGQGTSVTVSS
VL: DIQMNQSPSSLSASLGDTITITCHASQNIHVWLSWYQQKPGNIPKLLIYGASHLHTGVPSRFSGRGSGTGFTLTISSLQPEDIATYYCLQGQSYPLTFGSGTKVEIK
notes: Mouse hybridoma antibody; constant regions differ by assay
% max inhibition of shedding [2]: 28%
EC50 of shedding inhibition [2]: 0.074 µg/mL
% max inhibition of shedding [3]: 37%
EC50 of shedding inhibition [3]: 0.329 µg/mL
binding result [4]: binds
binding result [5]: binds
binding result [6]: binds
binding result [7]: binds
binding result [8]: binds
binding result [9]: binds
binding result [10]: binds
Kd [11]: 3000 pM
Kd [12]: 4500 pM
Kd [13]: 15100 pM

B3: 1D5 (antibody, V domains shown)
VH: EIQLQQSGPELVKPGASVKVSCKASGYAFTSQNIYWVKQSHGKSLEWIGYIEPYNVVPMYNPKFKGKATLTVDKSSSSAYIHLNSLTSEDSAIYYCARSGSSNFDYWGQGTTLTVSS
VL: EIILTQSPTTMAASPGEKITITCSASSSISSHYLHWYQQKSGFSPKLLIYRTSNLASGVPARFSGSGSGTSYSLTIGTMEAEDVATYYCQQGSSLPLTFGAGTKVEIK
notes: mouse variable domains; also called anti-MIC 1D5
% Inhibition [14]: 52%
% Inhibition [15]: 69%
% Inhibition [16]: 49%
IC50 (mg/mL), cell shedding assay (MICA*002 on PANC-1 cells): 0.0291 mg/mL
Max inhibition, cell shedding assay (MICA*002 on PANC-1 cells): 53%
IC50 (mg/mL), cell shedding assay [17]: 0.0247 mg/mL
Max inhibition, cell shedding assay [17]: 70%
IC50 (mg/mL), cell shedding assay [18]: 0.00823 mg/mL
Max inhibition, cell shedding assay [18]: 81%
IC50 (mg/mL), cell shedding assay [19]: 0.0293 mg/mL
Max inhibition, cell shedding assay [19]: 52%
Kd (huMICA*008 alpha 3-his [20]): 540 pM
Kd (huMICB*005 alpha 3-his [21]): 2280 pM
Kd (huMICA*004 alpha 3-his [22]): 560 pM
Kd (huMICA*002 alpha 3-his [23]): 820 pM
Kd (huMICB*005 alpha 3-his [24]): 950 pM
Kd (huMICA*008 alpha 3-his [25]): 610 pM
Kd (huMICA*004 alpha 3-his [26]): 630 pM
Kd (huMICA*002 alpha 3-his [27]): 830 pM

Next, values leading:

binding result [1]: binds
B1: 13A9 Fab (Fab, V domains shown)
VH: QVQLQQSGAELVRPGTSVKVSCKASGYAFTNYLIEWVKQRPGQGLEWIGAINPGSGATNYNEKFKDKARLTADKSSNTAYLQFSSLTSDDSAVYFCARFLGNYFDNWGQGATLTVSS
VL: DIQMTQSPASLSASVGETVTITCRASGNIHSYLAWYQQKQGKSPQLLVYYAETLADGVPSRFSGRGSGTQYSLKINSLQPEDFGSYFCQQFWTTPYTFGGGTKVEIK
notes: Expressed in E. coli as chimera of murine variable and human constant domains; not shown: human IgG1 CH1 constant domain; human kappa CL constant domain

binding result [28]: binds
B4: 6E1.1.12 Fab (Fab, V domains shown)
VH: QGQMQQSGAELVKPGASVKLSCKTSGFTFSDNYISWLKQKPGQSLEWIAWIYAGTGGSSYNQKFRDKAQLTVDTSSRTAYMQLSSLTTEDSAIYYCARHDYYGTSGAWFAYWGRGTLVTVSA
VL: DVLMTQTPLSLPVSLGDQASISCRSSQHIVHSNENTYLEWYLQKPGQSPKLLIYKVSNRFSGVPDRFSGSGSGTDFTLKISRVEAEDLGVYYCFQGSHVPWTFGGGTKVEIK
notes: Expressed in E. coli; the fraction with glutamine (not pyroglutamate) at the heavy chain N-terminus was crystallised; also called 6E1 Fab; not shown: human IgG1 CH1 constant domain; human kappa CL constant domain
